According to patent US20240254184A1 (SALUBRIS BIOTHERAPEUTICS, published 2024):

Biological target: T1, recombinant mouse CTLA-4 protein (mouse, UniProt P09793 36-162, limits assumed)
T1 construct: also called CTLA-4 protein from mice
Test: ELISA, CTLA-4 protein coated on plate, anti-human IgG Fc-peroxidase detection
Protocol: The binding activity of the anti-CTLA-4-IL-15Ra-sushi-IL-15 fusion protein to recombinant CTLA-4 protein which originated from different species, including human, cynomolgus monkey, rat, and mouse, was determined by Enzyme Linked Immunosorbent Assay (ELISA). Briefly, 96-well plates were coated overnight at 4° C. with […] of CTLA-4 protein diluted in PBS. Plates were blocked with 1% bovine serum albumin (BSA) for an hour at room temperature, and then incubated for additional 2 hours with the anti-CTLA-4-IL-15Ra-sushi-IL-15 fusion protein, Ipilimumab, or human IgG1 isotype control, at a 2-fold serial dilution starting from 1 μg/mL. Goat anti-human IgG (Fc specific)-peroxidase antibody (Sigma, 1:5000 dilution) was added to the plates and incubated for 1 hour at room temperature. After washing, the 3, 3′, 5, 5′-Tetramethylbenzidine (TMB) substrate was added to the wells to develop color and the absorbance at 450 nm was measured using the Multiskan plate reader (Thermo). Optical Density 450 (OD450) values were plotted against antibody concentration.

B1: Ipilimumab (antibody, V domains shown)
VH: QVQLVESGGGVVQPGRSLRLSCAASGFTFSSYTMHWVRQAPGKGLEWVTFISYDGNNKYYADSVKGRFTISRDNSKNTLYLQMNSLRAEDTAIYYCARTGWLGPFDYWGQGTLVTVSS
VL: not shown
notes: also called anti CTLA-4 antibody; CTLA-4 antibody
- binding result: no binding
